This note sets out measurements from paper PMC3476528.

Several values for one entry are separate records, joined by “and”; a condition that tells them apart may be missing. Equal entries are not always repeated.

Assay [1] concerns the target T1, histone H3 peptide 1-21 dimethylated on K9, biotinylated, P68431. The experiment in a line: SPR; biotinylated histone H3 peptides immobilised on streptavidin sensor, CHD4 constructs injected at 100 μl/min; 25 °C; 20 mM Tris pH 7.5, 200 mM NaCl, 0.05% polysorbate 20; Kd from the steady-state response, sensorgrams when appropriate globally fitted; three repeats.
The target in assay [2] is T2, histone H3 peptide 1-21 monomethylated on K9, biotinylated, P68431. Described as above.
The target of assay [3] is T3, histone H3 peptide 1-21 trimethylated on K9, biotinylated, P68431. Described as above.
For assay [4], the target named is histone H3 peptide 1-21, unmodified, biotinylated, P68431. The assay is described as above.
The target in assay [5] is T4, nucleosome core particle reconstituted from recombinant X. laevis histones and a 168 bp fragment of 601-DNA (X. laevis). The experiment in a line: native gel or EMSA; 50 fmol radiolabeled mononucleosomes with increasing amounts of CHD4 constructs, 15 min on ice, 20 Tris-HCl pH 8, 200 mM NaCl, 10% sucrose; 5% native polyacrylamide gel, autoradiography. (Mobility shift assays separate free from complexed probe on a gel.)

The target in assay [6] is T1, histone H3 peptide 1-21 dimethylated on …. The experiment in a line: SPR; as a1 but tPHDtCHD/ATPase injected with added ATP. (Surface plasmon resonance follows binding to a sensor surface in real time, without labels.)
Assay [7] deals with T2, histone H3 peptide 1-21 monomethylated …. The description is as above.
Assay [8] has as its target T3, histone H3 peptide 1-21 trimethylated …. The description is as above.
Assay [9] concerns the target histone H3 peptide 1-21, unmodified, biotinylated, P68431. The assay is described as above.
Assay [10] addresses T4, nucleosome core particle reconstituted ….

B1: CHD4 tandem plant homeodomain zinc fingers (tPHD) construct (domain or fragment)
chain: YETDHQDYCEVCQQGGEIILCDTCPRAYHMVCLDPDMEKAPEGKWSCPHCEKEGIQWEAKEDNSEGEEILEEVGGDLEEEDDHHMEFCRVCKDGGELLCCDTCPSSYHIHCLNPPLPEIPNGEWLCPRCTCPALKGK
modifications: not checked
Broadly, the Kd is the concentration at which binding is half-saturated. As a reminder, the koff is the rate constant with which the complex falls apart. Low readings indicate a long-lived complex, high ones a short-lived complex. Broadly, the kon is a measure of how fast the partners come together. Read a high kon as faster complex formation. Take B1: the Kd in assay [1] is 63 µM and 51 µM; in assay [2] it was 42 µM; in assay [3], 70 µM and 48 µM; in assay [4], 190 µM and 188 µM. Also, the koff was determined as 0.2 s⁻¹ in assay [1], 0.17 s⁻¹ in [3] and 0.49 s⁻¹ in assay [4]. In addition, the kon stood at 3900 M⁻¹ s⁻¹ in [1], 3500 M⁻¹ s⁻¹ in assay [3] and 2600 M⁻¹ s⁻¹ in assay [4]. For the same molecule, the concentration necessary for binding in [5] was 10 to 20 µM.

B2: CHD4 tPHDtCHD construct (tandem PHD and tandem chromodomains) (domain or fragment)
chain: YETDHQDYCEVCQQGGEIILCDTCPRAYHMVCLDPDMEKAPEGKWSCPHCEKEGIQWEAKEDNSEGEEILEEVGGDLEEEDDHHMEFCRVCKDGGELLCCDTCPSSYHIHCLNPPLPEIPNGEWLCPRCTCPALKGKVQKILIWKWGQPPSPTPVPRPPDADPNTPSPKPLEGRPERQFFVKWQGMSYWHCSWVSELQLELHCQVMFRNYQRKNDMDEPPSGDFGGDEEKSRKRKNKDPKFAEMEERFYRYGIKPEWMMIHRILNHSVDKKGHVHYLIKWRDLPYDQASWESEDVEIQDYDLFKQSYWNHRELMRGEEGRPGKKLKKVKLRKL
modifications: not checked
As to B2, the Kd in [1] is 8.6 µM; in assay [2], 24 µM; in assay [3] it was 21 µM and 10 µM; in assay [4], 14 µM and 19 µM. The results for the koff in assay [1] and in assay [4] were 0.31 s⁻¹ and 0.68 s⁻¹, respectively. Further, the figures for the kon in [3] and in assay [4] were 33000 M⁻¹ s⁻¹ and 50000 M⁻¹ s⁻¹, respectively. The concentration necessary for binding in assay [5] was found to be 0.5 µM.

B3: CHD4 tPHDtCHD/ATPase construct (minimal construct containing all three domains) (domain or fragment)
chain: YETDHQDYCEVCQQGGEIILCDTCPRAYHMVCLDPDMEKAPEGKWSCPHCEKEGIQWEAKEDNSEGEEILEEVGGDLEEEDDHHMEFCRVCKDGGELLCCDTCPSSYHIHCLNPPLPEIPNGEWLCPRCTCPALKGKVQKILIWKWGQPPSPTPVPRPPDADPNTPSPKPLEGRPERQFFVKWQGMSYWHCSWVSELQLELHCQVMFRNYQRKNDMDEPPSGDFGGDEEKSRKRKNKDPKFAEMEERFYRYGIKPEWMMIHRILNHSVDKKGHVHYLIKWRDLPYDQASWESEDVEIQDYDLFKQSYWNHRELMRGEEGRPGKKLKKVKLRKLERPPETPTVDPTVKYERQPEYLDATGGTLHPYQMEGLNWLRFSWAQGTDTILADEMGLGKTVQTAVFLYSLYKEGHSKGPFLVSAPLSTIINWEREFEMWAPDMYVVTYVGDKDSRAIIRENEFSFEDNAIRGGKKASRMKKEASVKFHVLLTSYELITIDMAILGSIDWACLIVDEAHRLKNNQSKFFRVLNGYSLQHKLLLTGTPLQNNLEELFHLLNFLTPERFHNLEGFLEEFADIAKEDQIKKLHDMLGPHMLRRLKADVFKNMPSKTELIVRVELSPMQKKYYKYILTRNFEALNARGGGNQVSLLNVVMDLKKCCNHPYLFPVAAMEAPKMPNGMYDGSALIRASGKLLLLQKMLKNLKEGGHRVLIFSQMTKMLDLLEDFLEHEGYKYERIDGGITGNMRQEAIDRFNAPGAQQFCFLLSTRAGGLGINLATADTVIIYDSDWNPHNDIQAFSRAHRIGQNKKVMIYRFVTRASVEERITQVAKKKMMLTHLVVRPGL
modifications: not checked
As to B3, the Kd in assay [6] is 1.7 µM; in [7], 6.9 µM; in assay [8], 0.5 µM; in [9], 1.4 µM; in assay [1], 4.7 µM; in assay [2] it was 2.9 µM. For the same molecule, the Kd in assay [3] was 2.6 µM; in [4], 4.1 µM. The koff in assay [6] came out at 0.0073 s⁻¹; in assay [8], 0.018 s⁻¹; in assay [9] it was 0.0265 s⁻¹; in assay [1], 0.0056 s⁻¹; in assay [2] it was 0.026 s⁻¹; in assay [3] it was 0.025 s⁻¹. For the same molecule, in [4], the koff is 0.0135 s⁻¹. Further, the kon in [6] was found to be 4300 M⁻¹ s⁻¹; in assay [8] it was 36000 M⁻¹ s⁻¹; in [9], 18900 M⁻¹ s⁻¹; in assay [1] it was 1200 M⁻¹ s⁻¹; in [2] it was 900 M⁻¹ s⁻¹; in assay [3], 1000 M⁻¹ s⁻¹. In addition, in assay [4], the kon stood at 3300 M⁻¹ s⁻¹. For the same molecule, in assay [10], the ATPase activity (kcat, phosphate release assay) with 0.32 pmol of mono-nucleosome particles; about 6-fold stimulation was 0.0615 s⁻¹. Besides, the concentration necessary for binding in assay [5] was 0.06 µM.
